Measured values: patent CN113501874A (SANGON BIOTECH SHANGHAI CO LTD, dated 2021)

Target: T1, 重组人CD47带his标签的蛋白 (human, UniProt Q08722 19-139, limits assumed)
T1 construct: Immunogen and ELISA coating antigen; also called 重组人CD47 his标签蛋白; 检测抗原; not shown: his tag
Assay: indirect ELISA; CD47-his coated at 3, 1.5, 0.75 and 0.375 mg/L; K=(N-1)/(N*AB'-AB), mean of 6 K values

T1 sequence (Q08722 19-139 limits assumed): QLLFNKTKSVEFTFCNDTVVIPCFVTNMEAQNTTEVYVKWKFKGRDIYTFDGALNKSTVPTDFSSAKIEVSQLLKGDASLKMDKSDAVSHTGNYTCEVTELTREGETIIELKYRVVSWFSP

B1: 单克隆细胞株7G7分泌的鼠抗人CD47单克隆抗体 (antibody, V domains shown)
VH: VKLQQSGAELARPGASVKLSCTASGYTFTDYYINWVRQRTGQGLEWIGDINPGRGKTYYIEKFKGKATLTADKSSSTAYMQLSSLTSEDSAVYFCARGGLRRFDYWGQGTTVTVSS
VL: DIELTQSPAIMSVSPGEKVTMTCRASSSVSSSYLHWYQQKSGVSPKLWIYSTSTLASGVPARFSGSGSGTSYSLTISSVEAADAATYYCQQYSGYPYTFGGGTKVEIKR
**Q.** How did the Ka turn out when B1 was run?
**A.** 1.39e+08 M⁻¹
